Measurements as given in the supplement of paper PMC9233669.
This sample holds only a part of the variants without activity.

Columns and labels:
biotinyl-Ile-oxazolone = assay: self-aminoacylation, catalytic enhancement (BIO) (fold over background); higher = more active; k-Seq, kA / k0A0; sequences stand for … in GGGAAUGGAUCCACAUCUACGAAUUC…UUCACUGCAGACUUGACGAAGCUG
Method in brief: (§1)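 Mutagenized RNA pools with a 21-nt variable region (0.43 μM) reacted with each biotinyl-aminoacyl-oxazolone at 2–1250 μM. Reactions ran in 50 μL HEPES/NaCl/KCl/MgCl2/CaCl2 buffer with 5% acetonitrile, pH 6.9–7.0, for 90 minutes at room temperature. Streptavidin-captured RNA was quantified by triplicate qPCR and Illumina sequencing, and per-sequence fraction reacted was fit to a pseudo-first-order model with 1000 bootstraps. Catalytic enhancement is median kA divided by the uncatalyzed rate, the low-activity peak of a bimodal Gaussian fit.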

biotinyl-Phe-oxazolone = assay: self-aminoacylation, catalytic enhancement (BFO) (fold over background); higher = more active; k-Seq, kA / k0A0; sequences stand for … in GGGAAUGGAUCCACAUCUACGAAUUC…UUCACUGCAGACUUGACGAAGCUG
Method in brief: as §1

biotinyl-Trp-oxazolone = assay: self-aminoacylation, catalytic enhancement (BWO) (fold over background); higher = more active; k-Seq, kA / k0A0; sequences stand for … in GGGAAUGGAUCCACAUCUACGAAUUC…UUCACUGCAGACUUGACGAAGCUG
Method in brief: as §1

biotinyl-Leu-oxazolone = assay: self-aminoacylation, catalytic enhancement (BLO) (fold over background); higher = more active; k-Seq, kA / k0A0; sequences stand for … in GGGAAUGGAUCCACAUCUACGAAUUC…UUCACUGCAGACUUGACGAAGCUG
Method in brief: as §1

biotinyl-Met-oxazolone = assay: self-aminoacylation, catalytic enhancement (BMO) (fold over background); higher = more active; k-Seq, kA / k0A0; sequences stand for … in GGGAAUGGAUCCACAUCUACGAAUUC…UUCACUGCAGACUUGACGAAGCUG
Method in brief: as §1

biotinyl-Val-oxazolone = assay: self-aminoacylation, catalytic enhancement (BVO) (fold over background); higher = more active; k-Seq, kA / k0A0; sequences stand for … in GGGAAUGGAUCCACAUCUACGAAUUC…UUCACUGCAGACUUGACGAAGCUG
Method in brief: as §1

Row | Sequence | self-aminoacylation (biotinyl-Ile-oxazolone) | self-aminoacylation (biotinyl-Phe-oxazolone) | self-aminoacylation (biotinyl-Trp-oxazolone) | self-aminoacylation (biotinyl-Leu-oxazolone) | self-aminoacylation (biotinyl-Met-oxazolone) | self-aminoacylation (biotinyl-Val-oxazolone)
1 | AUUGACCUACGUCAUCGGGUG [Fam2.2 aminoacylation ribozyme variant] | 3.13 | 40.6 | 5.9 | 6.43 | 4.72 | 3.81
2 | AUUGACCUAGGGCAUCGGGUG [Fam2.2 aminoacylation ribozyme variant] | 3.23 | 17 | 4.66 | 3.63 | 3.13 | 3.28
3 | AUUGACCUAGGUCACCGGGUG [Fam2.2 aminoacylation ribozyme variant] | 4.43 | 29.6 | 6.05 | 6.34 | 4.69 | 4.87
4 | AUUGACCUAGGUCAUCGGGGG [Fam2.2 aminoacylation ribozyme variant] | 3.41 | 12.8 | 3.93 | 4.57 | 3.21 | 3.04
5 | AUUGACCUAGGUCAUCGGGUU [Fam2.2 aminoacylation ribozyme variant] | 7.25 | 98.6 | 12.2 | 18.8 | 13.9 | 6.49
6 | AUUGACCUAGGUCUUCGGGUG [Fam2.2 aminoacylation ribozyme variant] | 3.85 | 19 | 4.79 | 4.19 | 4.29 | 3.97
7 | AUUGACCUAGUUCAUCGGGUG [Fam2.2 aminoacylation ribozyme variant] | 2.62 | 18.6 | 4.08 | 3.62 | 3.19 | 2.59
8 | AUUGACCUGGGUCAUCGGGUG [Fam2.2 aminoacylation ribozyme variant] | 12.2 | 107 | 24.1 | 29.6 | 25.9 | 13.5
9 | AUUGACCUGGUCAUCGAGUGA [Fam2.1 aminoacylation ribozyme variant] | 3.66 | 8.3 | 9.68 | 7.86 | 6.92 | 4.1
10 | AUUGCCCUGGACAUCGAGUGA [Fam2.1 aminoacylation ribozyme variant] | 2.41 | 24.8 | 5.92 | 5.58 | 5.71 | 3.11
11 | AUUGCCCUGGUCAACGAGUGA [Fam2.1 aminoacylation ribozyme variant] | 3.3 | 49.1 | 7.12 | 6.71 | 6.85 | 3.53
12 | AUUGCCCUGGUCAUCGAGGGA [Fam2.1 aminoacylation ribozyme variant] | 1.93 | 4.65 | 3.16 | 3.97 | 3.9 | 2.22
13 | AUUGCCCUGUUCAUCGAGUGA [Fam2.1 aminoacylation ribozyme variant] | 3 | 25.2 | 7.43 | 5.81 | 5.44 | 4.12
14 | AUUGCCCUUGUCAUCGAGUGA [Fam2.1 aminoacylation ribozyme variant] | 3.38 | 42.1 | 8.3 | 7.02 | 7.03 | 3.88
15 | AUUGUCCUAGGUCAUCGGGUG [Fam2.2 aminoacylation ribozyme variant] | 14.2 | 200 | 27.1 | 39.1 | 30.2 | 13.6
16 | AUUUACCAAGGUCAUCGGGUG [Fam2.2 aminoacylation ribozyme variant] | 4.61 | 77.2 | 7.11 | 9.69 | 7.36 | 4.6
17 | AUUUACCCAGGUCAUCGGGUG [Fam2.2 aminoacylation ribozyme variant] | 3.28 | 44.3 | 3.66 | 6.46 | 5.07 | 3.55
18 | AUUUACCUAGCUCAUCGGGUG [Fam2.2 aminoacylation ribozyme variant] | 2.01 | 8.53 | 2.04 | 2.58 | 2.16 | 2.4
19 | AUUUACCUAGGCCAUCGGGUG [Fam2.2 aminoacylation ribozyme variant] | 2.47 | 17.4 | 3.98 | 3.95 | 3.07 | 3.2
20 | AUUUACCUAGGUCAGCGGGUG [Fam2.2 aminoacylation ribozyme variant] | 2.49 | 24.5 | 3.98 | 4.23 | 4.01 | 3.16
21 | AUUUACCUAGGUCAUAGGGUG [Fam2.2 aminoacylation ribozyme variant] | 1.37 | 1.34 | 1.97 | 1.87 | 1.58 | 1.48
22 | AUUUACCUAGGUCAUCCGGUG [Fam2.2 aminoacylation ribozyme variant] | 3.68 | 41.8 | 4.6 | 7.4 | 4.7 | 3.81
23 | AUUUACCUAGGUCAUCGCGUG [Fam2.2 aminoacylation ribozyme variant] | 5.32 | 82.1 | 9.58 | 13.6 | 9.66 | 5.84
24 | AUUUACCUAUGUCAUCGGGUG [Fam2.2 aminoacylation ribozyme variant] | 3.04 | 28 | 4.76 | 6.5 | 4.35 | 2.96
25 | AUUUACGUAGGUCAUCGGGUG [Fam2.2 aminoacylation ribozyme variant] | 2.88 | 25.2 | 3.64 | 3.68 | 3.99 | 3.38
26 | AUUUCCCAGGUCAUCGAGUGA [Fam2.1 aminoacylation ribozyme variant] | 2.89 | 26.3 | 6.32 | 5.63 | 5.06 | 3.4

Row | Sequence | self-aminoacylation (biotinyl-Ile-oxazolone) | self-aminoacylation (biotinyl-Phe-oxazolone) | self-aminoacylation (biotinyl-Trp-oxazolone) | self-aminoacylation (biotinyl-Leu-oxazolone) | self-aminoacylation (biotinyl-Met-oxazolone) | self-aminoacylation (biotinyl-Val-oxazolone)
27 | AUUUCCCUGAUCAUCGAGUGA [Fam2.1 aminoacylation ribozyme variant] | 3 | 18.5 | 7.61 | 5.98 | 6.25 | 3.27
28 | AUUUCCCUGGCCAUCGAGUGA [Fam2.1 aminoacylation ribozyme variant] | 1.72 | 11.7 | 3.3 | 2.78 | 2.45 | 1.95
29 | AUUUCCCUGGUCAUCGAAUGA [Fam2.1 aminoacylation ribozyme variant] | 1.09 | 0.941 | 0.88 | 1.02 | 1.02 | 1.12
30 | AUUUCCCUGGUCAUCGAUUGA [Fam2.1 aminoacylation ribozyme variant] | 1.07 | 0.598 | 0.985 | 1.06 | 0.986 | 1
31 | AUUUCCCUGGUCAUGGAGUGA [Fam2.1 aminoacylation ribozyme variant] | 2.96 | 22 | 4.72 | 4.22 | 4.2 | 2.89
32 | AUUUCCCUGGUGAUCGAGUGA [Fam2.1 aminoacylation ribozyme variant] | 2.77 | 44.4 | 6.58 | 5.66 | 5.5 | 3.15
33 | AUUUCCCUGUUCAUCGAGUGA [Fam2.1 aminoacylation ribozyme variant] | 2.79 | 11.4 | 5.62 | 5.04 | 5.22 | 3.09
34 | AUUUCGCUGGUCAUCGAGUGA [Fam2.1 aminoacylation ribozyme variant] | 2.84 | 28.5 | 5.72 | 5.38 | 4.64 | 3.16
35 | CAACACCUCAAGCAAUCGGUC [Fam1B.1 aminoacylation ribozyme variant] | 0.947 | 1.3 | 0.997 | 1.1 | 1.27 | 0.914
36 | CAACACUUCAAGCAAACGGUC [Fam1B.1 aminoacylation ribozyme variant] | 0.92 | 0.797 | 0.739 | 0.68 | 0.678 | 0.815
37 | CAACACUUCAAGCAAUCCGUC [Fam1B.1 aminoacylation ribozyme variant] | 1.24 | 1.12 | 0.727 | 1.02 | 1.19 | 1.31
38 | CAACACUUCAAGCAAUCGGUA [Fam1B.1 aminoacylation ribozyme variant] | 1.25 | 1.44 | 1.23 | 1.13 | 1.15 | 1.14
39 | CAACACUUCAAGCAAUCGGUU [Fam1B.1 aminoacylation ribozyme variant] | 1.84 | 6.96 | 4.96 | 1.76 | 1.64 | 1.52
40 | CAACACUUCAAGCAAUCUGUC [Fam1B.1 aminoacylation ribozyme variant] | 0.399 | 0.588 | 0.398 | 0.362 | 0.396 | 0.502
41 | CAACACUUCAAGCAAUGGGUC [Fam1B.1 aminoacylation ribozyme variant] | 0.858 | 0.677 | 0.833 | 0.882 | 0.834 | 0.664
42 | CAACACUUCAAGCAAUUGGUC [Fam1B.1 aminoacylation ribozyme variant] | 0.98 | 1.42 | 0.958 | 0.775 | 0.866 | 0.904
43 | CAACCUCAAACAAUCGGUCUG [Fam1A.1 aminoacylation ribozyme variant] | 1.21 | 11.5 | 4.78 | 1.61 | 1.37 | 1.31
44 | CAACUUCAAACAAACGGUCUG [Fam1A.1 aminoacylation ribozyme variant] | 1.07 | 0.948 | 1.04 | 0.995 | 0.945 | 0.946
45 | CAACUUCAAACAAUAGGUCUG [Fam1A.1 aminoacylation ribozyme variant] | 1.03 | 1.41 | 0.98 | 0.884 | 0.997 | 0.919
46 | CAACUUCAAACAAUCGGACUG [Fam1A.1 aminoacylation ribozyme variant] | 1.26 | 19.2 | 10.6 | 1.41 | 0.952 | 0.945
47 | CAACUUCAGACAAUCGGUCUG [Fam1A.1 aminoacylation ribozyme variant] | 1.09 | 2.46 | 1.43 | 1.08 | 0.989 | 1.09
48 | CAACUUCGAACAAUCGGUCUG [Fam1A.1 aminoacylation ribozyme variant] | 1.21 | 2.22 | 2.15 | 0.999 | 1.1 | 1.15
49 | CAACUUCUAACAAUCGGUCUG [Fam1A.1 aminoacylation ribozyme variant] | 0.904 | 1.44 | 1.05 | 0.743 | 0.722 | 0.917
50 | CAAGUUCAAACAAUCGGUCUG [Fam1A.1 aminoacylation ribozyme variant] | 0.983 | 6.99 | 4.9 | 1.02 | 0.954 | 0.969
51 | CACUUUGCUAAUAGUCGCAAG [Fam3.1 aminoacylation ribozyme variant] | 1.41 | 0.947 | 2.22 | 1.38 | 1.32 | 1.01
